For assay [1], the target named is T1, human amylin receptor 3 (AMY3) (human, UniProt P30988 25-474; O60896 24-148).
T1 sequence (looked up) 1: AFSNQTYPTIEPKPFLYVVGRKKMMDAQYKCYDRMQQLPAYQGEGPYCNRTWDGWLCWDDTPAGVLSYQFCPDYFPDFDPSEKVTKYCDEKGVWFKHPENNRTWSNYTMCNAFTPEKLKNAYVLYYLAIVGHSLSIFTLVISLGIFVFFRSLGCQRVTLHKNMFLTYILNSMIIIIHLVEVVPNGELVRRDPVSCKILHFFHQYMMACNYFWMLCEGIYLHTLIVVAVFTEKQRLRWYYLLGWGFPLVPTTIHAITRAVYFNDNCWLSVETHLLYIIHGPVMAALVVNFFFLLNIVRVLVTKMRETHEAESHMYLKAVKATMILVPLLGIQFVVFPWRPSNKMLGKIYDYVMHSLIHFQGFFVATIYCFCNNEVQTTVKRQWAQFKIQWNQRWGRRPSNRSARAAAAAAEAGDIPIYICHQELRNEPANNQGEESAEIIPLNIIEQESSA
T1 sequence (looked up) 2: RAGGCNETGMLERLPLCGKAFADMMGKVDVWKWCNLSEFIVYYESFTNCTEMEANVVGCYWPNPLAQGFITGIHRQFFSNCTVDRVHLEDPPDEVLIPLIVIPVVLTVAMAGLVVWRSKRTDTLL
As to the kind of experiment: cell-based or functional assay.

Assay [2] deals with T2, amylin receptor in membranes prepared from the nucleus accumbens portion of the brain (rat) (rat).
T2 construct: whole, on cells; Native tissue membranes
As to the kind of experiment: displacement of 125I-rat amylin from rat nucleus accumbens membranes. How it is done: Plate was incubated for 1 hour at room temperature on a shaker. Plate was dried for 1.5 hours at 50° C., then overnight at room temperature.
Receptor binding activity can be expressed, for example in Table 3, as an IC₅₀ value, calculated from the raw data using an iterative curve-fitting program using a 4-parameter logistic equation (PRISM®, GraphPAD Software, La Jolla, Calif.), as known in the art.
(Loss of bound radioactivity is the signal in a displacement assay; it reports binding, not function.)

Assay [3] addresses T1, human amylin receptor 3 (AMY3). As to the kind of experiment: displacement of 125I-rat amylin from crude membranes of HEK293 cells expressing human AMY3 (hCalcR + RAMP3). How it is done: The crude membranes were incubated with 20 pM ¹²⁵I. (Perkin Elmer Cat#NEX4480) (2000 Ci/mmol) and increasing concentration of test peptide. […] The Unifilter® plates were washed several times using ice cold PBS using a MicroMate 96 Cell Harvester (Perkin Elmer).
The potency (IC₅₀) of test peptide was determined by the analysis of a concentration-response curve using non-linear regression analysis fitted to a 4-parameter curve. Binding affinities were calculated using GraphPad Prism® software (GraphPad Software, Inc., San Diego, Calif.).

No end group written: not given here.

Usually IC50 stands for the concentration needed to halve the response being measured. For CNTATCATQRLANFLVHSSNNFGPK(mPEG40KD)LPPTNVGSNTY-NH2 (ends and bridges not checked, also called Compound 29) [Cmpd 29, [K^26(mPEG40KD)]-Cmpd 12], the “EC50 (nM), cAMP accumulation (HTRF)” value in assay [1] came out at 0.114 nM. For the same molecule, the IC50 in assay [2] is 39 nM; in assay [3] it was 60 nM.
Regarding CNTATCATQRLANFLVHSSNNFGPILPPTNVGSK(mPEG40KD)TY-NH2 (ends and bridges not checked, also called Compound 42) [Cmpd 42, [K^35(mPEG40KD)]-Cmpd 39], in assay [1], the “EC50 (nM), cAMP accumulation (HTRF)” value was determined as 0.122 nM. The IC50 in assay [3] is 143 nM.
Turning to CNTATCATQRLANFLVHSSK(mPEG40KD)NFGPILPPTNVGSNTY-NH2 (ends and bridges not checked, also called Compound 28) [Cmpd 28, [K^21(mPEG40KD)]-Cmpd 11], the “EC50 (nM), cAMP accumulation (HTRF)” value in assay [1] worked out at 2.58 nM. The figures for the half-maximal inhibitory concentration (IC50) in assay [2] and in assay [3] were 131 nM and 388 nM, respectively.
For CNTATCATQRLANFLVHSSNNFGPIK(mPEG40KD)PPTNVGSNTY-NH2 (ends and bridges not checked, also called Compound 34) [Cmpd 34, [K^27(mPEG40KD)]-Cmpd 16] the same measures were 0.296 nM, 51 nM and 87 nM.
For CNTATCATQRLANFLVHSSNNFGK(mPEG40KD)ILPPTNVGSNTY-NH2 (ends and bridges not checked, also called Compound 33) [Cmpd 33, [K^25(mPEG40KD)]-Cmpd 15] the same measures were 0.126 nM, 31 nM and 48 nM.
Consider CNTATCATQRLANFLVHSSNNFGPILK(mPEG40KD)PTNVGSNTY-NH2 (ends and bridges not checked, also called Compound 35) [Cmpd 35, [K^28(mPEG40KD)]-Cmpd 17], for which the “EC50 (nM), cAMP accumulation (HTRF)” value in assay [1] was determined as 0.295 nM. Further, the concentration for half-maximal inhibition (IC50) in assay [2] is 53 nM; in assay [3] it was 46 nM.
Turning to CNTATCATQRLANFLVK(mPEG40KD)SSNNFGPILPPTNVGSNTY-NH2 (ends and bridges not checked, also called Compound 40) [Cmpd 40, [K^18(mPEG40KD)]-Cmpd 37], the “EC50 (nM), cAMP accumulation (HTRF)” value in assay [1] came out at 0.85 nM. The IC50 in assay [3] was 238 nM.
With CNTATCATQRLANFLVHSSNNFK(mPEG40KD)PILPPTNVGSNTY-NH2 (ends and bridges not checked, also called Compound 32) [Cmpd 32, [K^24(mPEG40KD)]-Cmpd 14], the “EC50 (nM), cAMP accumulation (HTRF)” value in assay [1] is 0.598 nM. In addition, the half-inhibitory concentration (IC50) in assay [2] was 79 nM; in assay [3], 111 nM.
For CNTATCATQRLANFLVHSSNNFGPILPK(mPEG40KD)TNVGSNTY-NH2 (ends and bridges not checked, also called Compound 36) [Cmpd 36, [K^29(mPEG40KD)]-Cmpd 18] the same measures were 0.159 nM, 27 nM and 47 nM.
Consider CNTATCATQRLANFLVHSSNNFGPILPPTNVGK(mPEG40KD)NTY-NH2 (ends and bridges not checked, also called Compound 41) [Cmpd 41, [K^34(mPEG40KD)]-Cmpd 38], for which the “EC50 (nM), cAMP accumulation (HTRF)” value in assay [1] came out at 0.034 nM. Moreover, the half-inhibitory concentration (IC50) in assay [3] is 77 nM.
Turning to CNTATCATQRLANFLVHSSNNFGPILPPTK(mPEG40KD)VGSNTY-NH2 (ends and bridges not checked, also called Compound 30) [Cmpd 30, [K^31(mPEG40KD)]-Cmpd 13], the “EC50 (nM), cAMP accumulation (HTRF)” value in assay [1] came to 0.145 nM. Further, the half-inhibitory concentration (IC50) was 61 nM in assay [2] and 80 nM in assay [3].
KCNTATCATQRLANFLVRSSNNLGPVLPPTNVGSNTY-NH2 (ends and bridges not checked, also called Compound 1) [Cmpd 1] returned an IC50 in assay [2] of 0.1 nM.
For CNTATCATQRLANFLVHSSNNFGPK(Y‑shaped‑mPEG40KD)LPPTNVGSNTY-NH2 (ends and bridges not checked, also called Compound 31) [Cmpd 31, [K^26(Y-shaped-mPEG40KD)]-Cmpd 12], the “EC50 (nM), cAMP accumulation (HTRF)” value in assay [1] was 2.56 nM. Besides, the IC50 in assay [2] is 132 nM; in assay [3] it was 1130 nM.

The values are drawn from patent US20140221287A1 (AstraZeneca / MedImmune, published 2014).
